# Test results: patent US7033991
# Like-named read-outs stand apart in the source and are kept apart here. No end group written: not given here.
# Key:
# Details in all cases: modification not given
# [1] = target: T1, Furin (recombinant, truncated) (mouse), P23188
# T1 chain: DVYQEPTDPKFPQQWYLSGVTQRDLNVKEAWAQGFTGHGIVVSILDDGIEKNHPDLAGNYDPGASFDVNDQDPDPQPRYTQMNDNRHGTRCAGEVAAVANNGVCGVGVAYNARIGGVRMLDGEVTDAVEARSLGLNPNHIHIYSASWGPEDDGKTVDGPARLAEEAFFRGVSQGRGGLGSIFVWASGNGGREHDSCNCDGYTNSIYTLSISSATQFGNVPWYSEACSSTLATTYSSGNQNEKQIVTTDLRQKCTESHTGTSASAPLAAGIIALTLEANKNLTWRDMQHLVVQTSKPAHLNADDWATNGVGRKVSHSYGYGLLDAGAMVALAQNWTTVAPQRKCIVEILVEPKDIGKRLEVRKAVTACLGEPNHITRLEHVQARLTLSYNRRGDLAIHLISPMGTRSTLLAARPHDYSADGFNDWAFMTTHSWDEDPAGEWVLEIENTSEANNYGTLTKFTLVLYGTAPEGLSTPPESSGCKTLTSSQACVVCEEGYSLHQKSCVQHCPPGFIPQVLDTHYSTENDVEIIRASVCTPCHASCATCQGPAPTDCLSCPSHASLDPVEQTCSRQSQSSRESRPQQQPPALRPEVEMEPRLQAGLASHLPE
# PC2, P16519 [2] = target: T2, PC2, P16519
# T2 chain: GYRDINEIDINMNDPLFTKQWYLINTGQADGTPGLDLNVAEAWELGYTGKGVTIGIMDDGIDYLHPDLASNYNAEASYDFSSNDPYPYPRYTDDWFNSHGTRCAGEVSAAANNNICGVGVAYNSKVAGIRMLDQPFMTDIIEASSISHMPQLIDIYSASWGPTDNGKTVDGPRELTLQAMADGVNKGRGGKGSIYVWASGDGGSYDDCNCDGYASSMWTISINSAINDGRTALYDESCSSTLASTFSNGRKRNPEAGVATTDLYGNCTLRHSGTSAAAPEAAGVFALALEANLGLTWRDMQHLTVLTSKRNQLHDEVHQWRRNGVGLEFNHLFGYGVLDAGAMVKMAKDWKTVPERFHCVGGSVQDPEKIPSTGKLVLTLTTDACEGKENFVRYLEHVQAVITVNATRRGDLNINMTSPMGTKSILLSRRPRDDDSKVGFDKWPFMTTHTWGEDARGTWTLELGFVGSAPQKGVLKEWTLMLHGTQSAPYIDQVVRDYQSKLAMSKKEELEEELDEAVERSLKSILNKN
# [3] = target: Furin (literature), P09958
# PC7, Q16549 = target: T3, PC7, Q16549
# T3 chain: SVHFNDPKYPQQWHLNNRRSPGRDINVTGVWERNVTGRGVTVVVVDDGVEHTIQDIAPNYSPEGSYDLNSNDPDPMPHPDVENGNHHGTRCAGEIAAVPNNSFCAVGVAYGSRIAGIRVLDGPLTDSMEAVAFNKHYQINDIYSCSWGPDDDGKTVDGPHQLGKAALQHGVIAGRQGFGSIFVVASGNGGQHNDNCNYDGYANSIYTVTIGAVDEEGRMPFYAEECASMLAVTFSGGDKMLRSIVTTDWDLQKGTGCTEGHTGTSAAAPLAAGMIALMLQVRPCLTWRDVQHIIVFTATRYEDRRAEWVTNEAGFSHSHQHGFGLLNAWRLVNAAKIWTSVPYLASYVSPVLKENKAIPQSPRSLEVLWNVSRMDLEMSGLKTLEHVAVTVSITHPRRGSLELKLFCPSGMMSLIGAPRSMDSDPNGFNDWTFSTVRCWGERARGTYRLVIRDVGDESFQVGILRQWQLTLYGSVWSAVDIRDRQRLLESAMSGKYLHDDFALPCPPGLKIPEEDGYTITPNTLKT
# PC2, P16519 [4] = target: T2, PC2, P16519
# [5] = target: T1, Furin (recombinant, truncated) (mouse), …
# [6] = target: T1, Furin (recombinant, truncated) (mouse), …
# PACE4, P29122 [7] = target: T4, PACE4, P29122
# T4 chain: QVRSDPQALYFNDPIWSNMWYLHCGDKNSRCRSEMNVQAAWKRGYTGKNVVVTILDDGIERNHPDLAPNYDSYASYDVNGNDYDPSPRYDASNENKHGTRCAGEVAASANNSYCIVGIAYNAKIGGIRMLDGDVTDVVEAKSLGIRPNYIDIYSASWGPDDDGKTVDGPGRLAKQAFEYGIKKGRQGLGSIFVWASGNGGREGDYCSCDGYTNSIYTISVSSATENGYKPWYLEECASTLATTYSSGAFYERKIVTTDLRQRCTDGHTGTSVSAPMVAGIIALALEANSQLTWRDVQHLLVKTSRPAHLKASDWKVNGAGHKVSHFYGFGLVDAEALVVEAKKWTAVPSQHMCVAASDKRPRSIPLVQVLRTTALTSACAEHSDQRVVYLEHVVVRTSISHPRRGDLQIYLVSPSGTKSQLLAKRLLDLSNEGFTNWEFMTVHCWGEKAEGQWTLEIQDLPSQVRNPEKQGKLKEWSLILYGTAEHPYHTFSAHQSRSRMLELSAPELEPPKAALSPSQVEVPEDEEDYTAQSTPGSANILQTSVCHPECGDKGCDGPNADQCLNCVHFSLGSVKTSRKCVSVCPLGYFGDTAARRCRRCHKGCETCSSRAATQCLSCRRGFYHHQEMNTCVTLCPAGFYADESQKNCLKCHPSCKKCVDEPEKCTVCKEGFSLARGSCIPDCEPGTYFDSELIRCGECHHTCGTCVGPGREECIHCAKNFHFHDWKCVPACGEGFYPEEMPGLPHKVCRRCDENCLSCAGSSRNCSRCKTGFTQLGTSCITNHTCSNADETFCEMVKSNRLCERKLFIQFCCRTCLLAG
# PC1, P29120 [8] = target: T5, PC1, P29120
# T5 chain: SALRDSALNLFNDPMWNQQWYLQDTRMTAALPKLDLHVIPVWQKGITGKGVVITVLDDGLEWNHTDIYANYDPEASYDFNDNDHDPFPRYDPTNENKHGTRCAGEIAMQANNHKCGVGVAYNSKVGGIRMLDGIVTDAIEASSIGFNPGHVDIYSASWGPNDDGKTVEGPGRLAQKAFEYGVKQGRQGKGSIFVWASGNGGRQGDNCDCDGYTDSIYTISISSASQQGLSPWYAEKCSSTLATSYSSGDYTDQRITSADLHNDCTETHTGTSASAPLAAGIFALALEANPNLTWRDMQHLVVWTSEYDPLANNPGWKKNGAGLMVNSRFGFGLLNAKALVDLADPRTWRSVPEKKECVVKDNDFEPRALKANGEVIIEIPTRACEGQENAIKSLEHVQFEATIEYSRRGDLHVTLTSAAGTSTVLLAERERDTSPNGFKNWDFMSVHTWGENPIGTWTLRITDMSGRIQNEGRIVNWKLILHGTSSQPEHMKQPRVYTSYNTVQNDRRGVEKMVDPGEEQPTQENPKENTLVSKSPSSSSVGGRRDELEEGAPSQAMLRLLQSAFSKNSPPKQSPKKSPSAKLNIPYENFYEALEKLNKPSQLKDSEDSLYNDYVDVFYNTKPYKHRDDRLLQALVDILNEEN
# PC2, P16519 [9] = target: T2, PC2, P16519
# [10] = target: T1, Furin (recombinant, truncated) (mouse), …
# PC2, P16519 [11] = target: T2, PC2, P16519
# [12] = target: T1, Furin (recombinant, truncated) (mouse), …
# PC1, P29120 [13] = target: T5, PC1, P29120
# [14] = target: T1, Furin (recombinant, truncated) (mouse), …
# PACE4, P29122 [15] = target: T4, PACE4, P29122
# PC2, P16519 [16] = target: T2, PC2, P16519
# [17] = target: T1, Furin (recombinant, truncated) (mouse), …
# [18] = target: T1, Furin (recombinant, truncated) (mouse), …
# PC2, P16519 [19] = target: T2, PC2, P16519
# PC2, P16519 [20] = target: T2, PC2, P16519
# [21] = target: T1, Furin (recombinant, truncated) (mouse), …
# PC1, P29120 [22] = target: T5, PC1, P29120
# PACE4, P29122 [23] = target: T4, PACE4, P29122
# [24] = target: T1, Furin (recombinant, truncated) (mouse), …
# Chain of Furin (literature), P09958 (P09958 108-715): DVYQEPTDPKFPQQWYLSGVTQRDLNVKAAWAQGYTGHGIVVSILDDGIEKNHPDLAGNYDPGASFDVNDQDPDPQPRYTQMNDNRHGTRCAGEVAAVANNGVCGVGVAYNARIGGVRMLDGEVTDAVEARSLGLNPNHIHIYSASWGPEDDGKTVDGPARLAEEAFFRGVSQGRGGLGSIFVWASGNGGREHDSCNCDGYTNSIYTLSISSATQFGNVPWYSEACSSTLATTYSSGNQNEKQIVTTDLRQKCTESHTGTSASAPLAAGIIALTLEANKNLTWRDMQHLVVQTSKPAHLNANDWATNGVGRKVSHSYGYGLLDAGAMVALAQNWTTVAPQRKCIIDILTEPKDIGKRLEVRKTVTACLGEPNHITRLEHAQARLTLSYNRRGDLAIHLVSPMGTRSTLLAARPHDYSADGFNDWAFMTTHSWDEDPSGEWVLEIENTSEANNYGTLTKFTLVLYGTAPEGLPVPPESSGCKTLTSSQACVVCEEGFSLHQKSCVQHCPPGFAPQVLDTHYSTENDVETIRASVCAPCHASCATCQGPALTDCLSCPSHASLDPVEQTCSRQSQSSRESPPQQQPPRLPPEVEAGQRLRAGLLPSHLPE
binder,measurement,setting,value
Ac-LLRVKR [Ac-LLRVKR],Ki,[1],3500 nM
same,Ki,"PC2, P16519 [2]",1300 nM
EQRLLKRAKR [PC7 propeptide fragment],Ki,[3],80 nM
same,Ki,"PC7, Q16549",6 nM
Ac-HRKRRR-NH2 [Ac-HRKRRR-NH2],Ki,"PC2, P16519 [4]",309000 nM
same,Ki,[5],2100 nM
RRRRRRRR [Octa-L-arginine],Ki,[6],61 nM
same,Ki,"PACE4, P29122 [7]",150 nM
same,Ki,"PC1, P29120 [8]",5100 nM
Ac-KHKRRR-NH2 [Ac-KHKRRR-NH2],Ki,"PC2, P16519 [9]",280000 nM
same,Ki,[10],5200 nM
Ac-LLRVKR-NH2 [Ac-LLRVKR-NH2],Ki,"PC2, P16519 [11]",1000 nM
same,Ki,[12],3400 nM
RRRRR [Penta-L-arginine],Ki,"PC1, P29120 [13]",14000 nM
same,Ki,[14],990 nM
same,Ki,"PACE4, P29122 [15]",980 nM
Ac-KRKRRR-NH2 [Ac-KRKRRR-NH2],Ki,"PC2, P16519 [16]",391000 nM
same,Ki,[17],1600 nM
Ac-RHKRRR-NH2 [Ac-RHKRRR-NH2],Ki,[18],3400 nM
same,Ki,"PC2, P16519 [19]",152000 nM
Ac-RRKRRR-NH2 [Ac-RRKRRR-NH2],Ki,"PC2, P16519 [20]",461000 nM
same,Ki,[21],1300 nM
RRRRRRRRR [Nona-L-arginine],Ki,"PC1, P29120 [22]",12000 nM
same,Ki,"PACE4, P29122 [23]",110 nM
same,Ki,[24],42 nM
